Reference: the nanobody polyreactivity screen of Harvey et al. (2022)

Assay: yeast display, Sf9 membrane polyspecificity reagent, FACS + sequencing; frameworks hold sequencing errors
Summary of the method: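 Genes from sorted yeast were amplified by colony PCR, read by MiSeq 2 × 250 sequencing and filtered on CDR length. These cells carried a synthetic nanobody library in Saccharomyces cerevisiae BJ5465 and were sorted by FACS into low and high (top ~1%) gates on anti-HA and streptavidin fluorescence. Polyreactivity is labelled according to the gate of origin.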

| Sequence | polyreactivity (PSR sort gate) |
| --- | --- |
| QVQLVESGGGLVQAGGSLRLSCAASGSTFAYYAMGWYRQAPGKERELVAAISWSGGSTYYADSVKGRFTISRDNAKNTVYLQLNSLKPEDTAVYYCAAGVPSTFQYSYWDYNYWGQGTQVTVSS | low polyreactivity |
| QVQLVESGGGLVQAGGSLRLSCAASGSTFAYYAMGWYRQAPGKERELVAAITSSGGSTYYADSVKGRFTISRDNAKNTVYLQMNSLKPEDTAVYYCNARYRRKSWRPFDYWGQGTQVTVSS | high polyreactivity |
| QVQLVESGGGLVQAGGSLRLSCAASGSTFAYYARGWYRQAPGKERELVASISWRGGSTYYADSVKGRFTISRDNAKNTVYLQMNSLKPEDTAFYYCAAGRFYKWSRSQEYDYWGQGTQVTVSS | low polyreactivity |
| QVQLVESGGGLVQAGGSLRLSCAASGSTFCRNAMGWYRQAPGKEREFVAVISISSGTTYADSVKGRFTISRDNAKNTVYLQMNSVKPVDTAVYYCAAAIGVYYIDYRYLGTVEYWGQGTQVNVSS | low polyreactivity |
| QVQLVESGGGLVQAGGSLRLSCAASGSTFDANAMGWYRQAPGKERELVAAITSNGGSTYYADSVKGRFTISRDNAKNTVYLQMNSLKPEDTAVYYCDTEQHTVQDYDYWGQGTQVTVSS | low polyreactivity |
| QVQLVESGGGLVQAGGSLRLSCAASGSTFDANAMGWYRQAPGKERELVADITVRDGSTYYADSVKGRFTISRDNAKNTVYLQMNSLKPEDTAVYYCNAGRYTGGYSPGYGYWGLGTQVTVSS | low polyreactivity |
| QVQLVESGGGLVQAGGSLRLSCAASGSTFDAYAMGWYRQAPGKDRELVAGISSGGSYEYADSVKGRFTISRDNAKNTVYLQMNSLIPEDTAVYYCAADSRQSVYYYQPTKFDYWGQGSQVTVSS | low polyreactivity |
| QVQLVESGGGLVQAGGSLRLSCAASGSTFDFYAMGWYRQAPGKERELVARISSGGGRTYYADSVKGRFTISRDNAKNTVYLQLNSLKPEDTAVYYCATDYPWIFGHFLMDYWGQGTQVTVSS | low polyreactivity |
| QVQLVESGGGLVQAGGSLRLSCAASGSTFDGNAMGWYRQAPGKERELDAAISWNSGSTYYADSVKGRFTISRDNAKNTVYLQMNSLKPEDTAVYYCAATYGTGRRSKYGYWGQGTQVTVSS | high polyreactivity |
| QVQLVESGGGLVQAGGSLRLSCAASGSTFDGYAMGWSRQAPGKERELVGSITRRGGSTYYADSVKGRFTISRDNAKNTVYVQMNSLKPEDTAVYYCAVLGRGVSGYTWPYDYWGQGTQVTVSS | high polyreactivity |
| QVQLVESGGGLVQAGGSLRLSCAASGSTFDGYAMGWYRPAPGKERELVAGISTSGGSTYYADSVKGRFTISRDNAKNTVYLQMNSLKPEDSAVYYCAAEWFDQVKDPAADYISYEYWGQGTQVTVSS | low polyreactivity |
| QVQLVESGGGLVQAGGSLRLSCAASGSTFDGYAMGWYRQAPAKERELVAAISRSGGRTYYADSVNGRFTISRDNAKITVYLQMNSLKPEDTAFYYCAAMYTYKREDYWGQGTQVTVSS | high polyreactivity |
| QVQLVESGGGLVQAGGSLRLSCAASGSTFDGYAMGWYRQAPGKERELVAAITSSSTSTYYADSVKGRFTISRDNAKNTVYLQMNSLKPEDTAVYYCAAQYFSYISVYSFYTMGYWGQGTQVTVSS | low polyreactivity |
| QVQLVESGGGLVQAGGSLRLSCAASGSTFDINAMGWYRQAPGKERELVAAINSDARTNYADSVKGRFTISRDNAKNTVYLLMNSLKPEDTAVYYCATDTSHSTYQYGYWGQGTQVSVSS | low polyreactivity |
| QVQLVESGGGLVQAGGSLRLSCAASGSTFDINAMGWYRQAPGKERELVAAITSGGGTNYADSVKGRFTISRDNAKNTVYLQMNSMKPEDTAVYYCAARVRGKYDYWGQGTQVTVSS | high polyreactivity |
| QVQLVESGGGLVQAGGSLRLSCAASGSTFDIYAMGWYRQAPGKERELVAAIRGRGGSTYYADSVKGRFTISRDNAKNTVSLQMNSLKPEDTAVYYCAAQTKRQRREFGFWGQGTQVTVSS | high polyreactivity |

| Sequence | polyreactivity (PSR sort gate) |
| --- | --- |
| QVQLVESGGGLVQAGGSLRLSCAASGSTFDIYAMGWYRQAPGKESELVAAISGSSTRTYYADSVKGRFTISRDNAKYTVYLQMNSLKPEDTPGYYCVGRFYERDYWGQGTQVTVSS | high polyreactivity |
| QVQLVESGGGLVQAGGSLRLSCAASGSTFDIYVMGWYRQAPGKERELVAAISRVGNTSYADSVKGRFTISRDNAKNTVYLQMNSLKPEDTAVYYCAADAPSWYDRQYDYWGQGTQVTVSS | low polyreactivity |
| QVQLVESGGGLVQAGGSLRLSCAASGSTFDLYAMGWYRQAPGKERELVAGISRGGSTYYADSVKGRFTISRDNAKNTVYLQMNSLKPEDTAVYYCAAYFRYRSSRYGYWGQGTQVTVSS | high polyreactivity |
| QVQLVESGGGLVQAGGSLRLSCAASGSTFDNYAMGWYRQAPGKERELVAAISYSGGSTHYADSVKGRFTISRDNAKNTVYLQMNSLKPEDTAVYYCAADVSGDKGSIHMNYWGQGTQVTVSS | low polyreactivity |
| QVQLVESGGGLVQAGGSLRLSCAASGSTFDPNAMGWYRQAPGKERELVASITSRGGSTYYADSVKGRFTISRDNAKNTVYLQMNSLKPEDTAVYYCAAVGGATYSWNGYSWYAWHNYWGQGTQVTVSS | low polyreactivity |
| QVQLVESGGGLVQAGGSLRLSCAASGSTFDPNTMGWYRQAPGKDRELVAAITSSTASTYYADSVKGRFTISRDNAKNTVYLQMNSLKPEDTAVYYCAADSEQDNLRYYRWVWYYYWGQGTQVTVSS | low polyreactivity |
| QVQLVESGGGLVQAGGSLRLSCAASGSTFDPYAMGWYRQAPGKERELVAAITSGGGTKYADSVKGRFTISRDNAKNTVYLQMNSLKPEDTAVYYCATDIRAEHGYWGQGTQVTVSS | low polyreactivity |
| QVQLVESGGGLVQAGGSLRLSCAASGSTFDPYAMGWYRQAPGKERELVAAITWGGGSTYADSVKGRFTISRDNAKNTVYLQMNSLKPEDTAVYYCAAEYYLWLFEYYVEYDYWGQGTQVTVSS | high polyreactivity |
| QVQLVESGGGLVQAGGSLRLSCAASGSTFDRYAMGWYRQAPGKERELVAAISWSAGRTYYADTVKARFTISRDYAKNTVYLQMNSLKPEDTAVYYCAADQIVSGTYDYYWGQGTQVTVSS | low polyreactivity |
| QVQLVESGGGLVQAGGSLRLSCAASGSTFDRYAMGWYRQAPGKERELVAAISWSGGSTYYADSVKGRFTISRDNAKNTVYLQMNSLKPEDTAVYYCARRYARITPVYAPLNYWGQGTQVTVSS | high polyreactivity |
| QVQLVESGGGLVQAGGSLRLSCAASGSTFDRYAMGWYRQAPGKERELVAAITGSGGRTYYADSVKGRFTISRDNAKNTVYLQMNSLKPEDTAVYYCAARRSGYYLYSVDYWGQGTQVTVST | high polyreactivity |
| QVQLVESGGGLVQAGGSLRLSCAASGSTFDRYAMGWYRQAPGNERELVAAISSSGGTTYYADSVKGRFTITRDNAKTTVYVQMNSLKPEDTAVYYCAAVRYYESRGGYDYWGQGPQVTVSS | low polyreactivity |
| QVQLVESGGGLVQAGGSLRLSCAASGSTFDSNDMGWYRQAPGKERELVAGITWSGASTYYADSVKGRFTISRDNAKNTVYLQMNSLKPEDTAVYYCAAGPWGTGHYVQGPVYYYRYDYWGQGTQVTVSS | low polyreactivity |
| QVQLVESGGGLVQAGGSLRLSCAASGSTFDSYAMGWYRQAPGKERELVAAISRSGGRTYYADSVKGRFTISRDNAKNTVYLQMNSLKPEDTAVYYCNAAYKRWVTPGYDAYDYWGQGTQVTVSS | high polyreactivity |
| QVQLVESGGGLVQAGGSLRLSCAASGSTFDSYAMGWYRQDPGKERELFAAITYSGGRTYYADSVKGRFTISRDNAKNTVYLQMNSLKPEDTAVYYCAATGVFRDEYWGQGTQVTVSS | low polyreactivity |
